Experimental data as given in US20080119412A1 (NONO, published 2008).

Tests used:
Experiment in all cases: G assay
[1] = biological target: …
[2] = biological target: Peptide #1829, biotin-…
[3] = biological target: …; remark: listed apart in the source
[4] = biological target: …; remark: listed apart in the source
[5] = biological target: Peptide #1791, biotin-…
[6] = biological target: …; remark: listed apart in the source
[7] = biological target: Peptide #1841, biotin-…
[8] = biological target: Peptide #1852, biotin-[…]
[9] = biological target: Peptide #1846, biotin-[…]

Measured: binding result

B1: GST-INADL PDZ domain 3 fusion protein (other, not shown: a dimerising Fc or GST; small tags and cut ends)
chain: PGSDSSLFETYNVELVRKDGQSLGIRIVGYVGTSHTGEASGIYVKSIIPGSAAYHNGHIQVNDKIVAVDGVNIQGFANHDVVEVLRNAGQVVHLTLVRRKTSSSTSRIHRD
notes: also called INADL d3 (96.3); INADL D3
binds: [1] | [2]

B2: GST-PAR3 PDZ domain 3 fusion protein (other, not shown: a dimerising Fc or GST; small tags and cut ends)
chain: PREFLTFEVPLNDSGSAGLGVSVKGNRSKENHADLGIFVKSIINGGAASKDGRLRVNDQLIAVNGESLLGKTNQDAMETLRRSMSTEGNKRGMIQLIVASRISKCNELKSNSS
notes: also called PAR3 d3 (278.1); PAR3 D3
binds: [1] | [3] | [4] | [5]

B3: GST-ZO-1 PDZ domain 2 fusion protein (other, not shown: a dimerising Fc or GST; small tags and cut ends)
chain: ISSQPAKPTKVTLVKSRKNEEYGLRLASHIFVKEISQDSLAARDGNIQEGDVVLKINGTVTENMSLTDAKTLIERSKGKLKMVVQRDRATLLNSS
notes: also called ZO-1 d2 (241.3); ZO-1 D2
not listed: [9]
binds: all other assays above

B4: GST-RIM2 PDZ domain 1 fusion protein (other, not shown: a dimerising Fc or GST; small tags and cut ends)
chain: TLNEEHSHSDKHPVTWQPSKDGDRLIGRILLNKRLKDGSVPRDSGAMLGLKVVGGKMTESGRLCAFITKVKKGSLADTVGHLRPGDEVLEWNGRLLQGATFEEVYNIILESKPEPQVELVVSRPIG
notes: also called RIM2 (177.4); RIM-2 d1
not listed: [4]
binds: all other assays above

B5: GST-Syntrophin 1 alpha PDZ domain 1 fusion protein (other, not shown: a dimerising Fc or GST; small tags and cut ends)
chain: QRRRVTVRKADAGGLGISIKGGRENKMPILISKIFKGLAADQTEALFVGDAILSVNGEDLSSATHDEAVQVLKKTGKEVVLEVKYMKDVSPYFK
notes: also called Syntrophin 1 alpha d1 (52.5); Syntrophin 1 alpha D1
binds: [4]
